Patent US20090076249A1 (published 2009)
Values belong to the binder of their own block, whether it stands above or below them.

Tests used:
Experiment in all cases: cell-based or functional assay
human CD38 [1] = target: T1, human CD38 (human, UniProt P28907 1-300)
human CD38 [2] = target: T1, human CD38; remark: listed apart in the source
human CD38 [3] = target: T1, human CD38; remark: listed apart in the source
human CD38 [4] = target: T1, human CD38; remark: listed apart in the source

EC50 of ADCC (51Cr release), Daudi-luc target cells (human CD38 [1]): 0.009 µg/mL | EC50 of ADCC (51Cr release), fresh MM tumor cells (human CD38 [1]): 0.027 µg/mL | Log EC50 of ADCC, Daudi target cells (n=5) (human CD38 [2]): 1.17 | EC50 of CDC, CHO-CD38 cells (n = 2) (human CD38 [3]): 4.5 µg/mL | EC50 of CDC (PI-positive cells), CD38-CHO cells (human CD38 [4]): 3.14 µg/mL | EC50 of CDC (PI-positive cells), Daudi-luc cells (human CD38 [4]): > 90 µg/mL
B1: -003 (antibody, V domains shown)
VH: not shown
VL: DIQMTQSPSSLSASVGDRVTITCRASQGISSWLAWYQQKPEKAPKSLIYAASSLQSGVPSRFSGSGSGTDFTLTISSLQPEDFATYYCQQYNSYPRTFGQGTKVEIK

EC50 of ADCC (51Cr release), Daudi-luc target cells (human CD38 [1]): 0.0097 µg/mL | EC50 of ADCC (51Cr release), fresh MM tumor cells (human CD38 [1]): 0.056 µg/mL | EC50 of CDC (PI-positive cells), CD38-CHO cells (human CD38 [4]): 0.24 µg/mL | EC50 of CDC (PI-positive cells), Daudi-luc cells (human CD38 [4]): > 90 µg/mL
B2: -024 (antibody, V domains shown)
VH: EVQLVQSGAEVKKPGESLKISCKGSGYSFSNYWIGWVRQMPGKGLEWMGIIYPHDSDARYSPSFQGQVTFSADKSISTAYLQWSSLKASDTAMYYCARHVGWGSRYWYFDLWGRGTLVTVSS
VL: EIVLTQSPATLSLSPGERATLSCRASQSVSSYLAWYQQKPGQAPGLLIYDASNRASGIPARFSGSGSGTDFTLTISSLEPEDFAVYYCQQRSNWPLTFGGGTKVEIK
